Test results: article PMC12802937

Assays:
[1] = target: RNF-MD S5i (E766K in RNF20 and K57E/R804E in RNF40) (human) (UniProt Q5VTR2); test: SPR; RNF-MD immobilised on a CM5 chip, intein-WAC flown over; Biacore 8K, 25°C, 20 mM HEPES (pH 7.5), 200 mM sodium chloride, 0.02% Tween 20
[2] = target: RNF-MD S4i (D780K in RNF20) (human) (UniProt Q5VTR2); test: as above

Kd [1] [nM] | koff [1] [s⁻¹] | kon [1] [M⁻¹ s⁻¹] | Kd [2] [nM] | koff [2] [s⁻¹] | kon [2] [M⁻¹ s⁻¹] | Binder
464 | 0.0142 | 30500 | – | – | – | intein-CBD-tagged WAC-CT (WAC residues 570–647) (domain or fragment) HVQGWPADHAEKQASRLREEAHNMGTIHMSEICTELKNLRSLVRVCEIQATLREQRILFLRQQIKELEKLKNQNSFMV
– | – | – | 249 | 0.0435 | 17500 | intein-WAC S4 (R630E) (domain or fragment) HVQGWPADHAEKQASRLREEAHNMGTIHMSEICTELKNLRSLVRVCEIQATLREQRILFLEQQIKELEKLKNQNSFMV
